Experimental data as given in patent US20150010566A1.

Key:
Test in all cases: cell-based or functional assay
[1] = target: HA of high pathogenic H7N7 (A/Ch/Neth/621557/03), on infected MDCK cells or on virus (Influenza A virus H7N7 A/Ch/Neth/621557/03 (host Chicken))
[2] = target: HA of H5N1 A/turkey/Turkey/05 virus (Influenza A virus H5N1 A/turkey/Turkey/05)
[3] = target: HA of Influenza H3N2 (A/Swine/St. Oedenrode/1996), on infected MDCK cells or on virus (Influenza A virus H3N2 A/Swine/St. Oedenrode/1996 (host Swine))
[4] = target: HA of Influenza H1N1 (A/Neth/602/2009), on infected MDCK cells or on virus (Influenza A virus H1N1 A/Neth/602/2009 (host Human))
[5] = target: HA of low pathogenic H7N1 (A/Ch/Italy/1067/1999), on infected MDCK cells or on virus (Influenza A virus H7N1 A/Ch/Italy/1067/1999 (host Chicken))

CR8020 (antibody)
IC50, in vitro virus neutralization on MDCK cells [1]: 0.6 µg/mL
IC50, in vitro virus neutralization on MDCK cells [2]: > 15 µg/mL
IC50, in vitro virus neutralization on MDCK cells [3]: > 15 µg/mL
IC50, in vitro virus neutralization on MDCK cells [4]: > 15 µg/mL
IC50, in vitro virus neutralization on MDCK cells [5]: > 15 µg/mL
